Consider three molecules from paper PMC7145654.

Read-outs that look alike come from different tables or passages of the source.

For data set [1], the target named is T1, Uup (Escherichia coli, UniProt P43672 1-635). As to the kind of experiment: EMSA. (A gel shift assay detects complexes by their altered migration in electrophoresis.)
In data set [2] the target is T2, RadD (Escherichia coli, UniProt P33919 1-586).
T2 sequence: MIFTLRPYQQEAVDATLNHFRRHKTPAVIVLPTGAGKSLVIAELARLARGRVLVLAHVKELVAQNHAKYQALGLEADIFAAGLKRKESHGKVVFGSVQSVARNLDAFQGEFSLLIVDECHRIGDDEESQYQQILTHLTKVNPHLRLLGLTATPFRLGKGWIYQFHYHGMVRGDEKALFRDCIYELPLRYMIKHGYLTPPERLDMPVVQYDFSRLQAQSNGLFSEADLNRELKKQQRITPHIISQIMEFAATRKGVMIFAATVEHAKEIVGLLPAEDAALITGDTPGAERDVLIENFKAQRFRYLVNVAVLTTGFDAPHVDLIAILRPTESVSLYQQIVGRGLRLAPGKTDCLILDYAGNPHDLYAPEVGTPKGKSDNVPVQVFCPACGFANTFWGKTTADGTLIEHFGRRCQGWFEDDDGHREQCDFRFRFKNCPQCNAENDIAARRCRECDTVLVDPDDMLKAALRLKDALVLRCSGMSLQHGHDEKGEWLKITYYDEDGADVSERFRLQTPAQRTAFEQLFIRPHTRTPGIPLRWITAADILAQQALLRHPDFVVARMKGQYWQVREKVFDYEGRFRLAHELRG
As to the kind of experiment: fluorescence anisotropy. Background: In fluorescence polarisation assays a small probe gives low polarisation when free and higher when bound to something large.

Data set [3] addresses T2, RadD. As to the kind of experiment: fluorescence anisotropy. This is another data set of the same source.
Data set [4] addresses T1, Uup. As to the kind of experiment: EMSA. The source holds these as a separate data set.

T1 sequence (P43672 whole entry): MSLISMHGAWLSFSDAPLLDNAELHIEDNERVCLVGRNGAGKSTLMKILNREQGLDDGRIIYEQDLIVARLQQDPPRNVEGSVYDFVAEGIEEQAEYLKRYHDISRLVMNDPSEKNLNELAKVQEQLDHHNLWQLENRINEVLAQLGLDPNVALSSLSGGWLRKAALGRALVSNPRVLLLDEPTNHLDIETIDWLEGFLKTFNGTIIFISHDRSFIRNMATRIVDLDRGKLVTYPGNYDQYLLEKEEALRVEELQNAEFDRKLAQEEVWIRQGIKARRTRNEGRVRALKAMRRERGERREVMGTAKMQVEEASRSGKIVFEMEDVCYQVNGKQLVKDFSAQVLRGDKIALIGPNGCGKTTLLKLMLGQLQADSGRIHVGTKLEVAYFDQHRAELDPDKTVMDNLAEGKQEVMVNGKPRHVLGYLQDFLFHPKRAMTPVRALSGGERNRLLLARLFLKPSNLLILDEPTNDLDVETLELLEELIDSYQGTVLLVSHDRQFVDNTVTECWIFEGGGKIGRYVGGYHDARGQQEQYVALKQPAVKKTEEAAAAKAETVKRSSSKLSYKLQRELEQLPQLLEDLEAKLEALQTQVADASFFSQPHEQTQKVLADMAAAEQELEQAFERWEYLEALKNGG

B1: linear duplex (ZJRds1/ZJRds2) (dsDNA)
DNA 1: GCAATTAAGCTCTAAGCCATCCGCAAAAATGACCTCTTATCAAAAGGA
DNA 2: TCCTTTTGATAAGAGGTCATTTTTGCGGATGGCTAAGAGCTTAATTGC
Consider B1, for which the binding result in the data set with Uup [1] and with RadD [2] was “no binding” in each case.

B2: three-way junction (OH1/OH4/3W) (structured_DNA)
DNA 1: CCCGTGATCACCAATGCAGATTGACGAACCTTTGCCCACGT
DNA 2: GGCAGTAGGCCTAGCATGACAATCTGCATTGGTGATCACGG
DNA 3: GACGTGGGCAAAGGTTCGTCGTCATGCTAGGCCTACTGC
Consider B2, for which the binding result with RadD [3] is reported as “binds”.

B3: Holliday junction (OH1-OH4) (structured_DNA)
DNA 1: B2 DNA 1
DNA 2: GACGTGGGCAAAGGTTCGTCAATGGACTGACAGCTGCATGG
DNA 3: GCCATCCAGCTGTCAGTCCATTGTCATGCTAGGCCTACTGC
DNA 4: B2 DNA 2
With B3, the binding result with Uup [4] is “binds”; with RadD [2] it was “no binding”.
